{"source": "patent US20230167431", "system": "CCR5-targeting megaTAL (CCR5MT) expressed as a CCR5MT-tEGFR fusion (Artificial sequence)", "assay": "cell_activity", "conditions": "tEGFR-sorted primary human CD4 T cells, donor 1; estimated InDels 58.76%; donor 2 73.54% cleaved; untreated 0%; SEQ:6 assigned to the megaTAL by inference from …"}
{"substance": "CCR5 gene megaTAL target site", "values": [{"measurement": "activity (% cleaved DNA (T7E1))", "result": 83}]}
